From patent CN114456266A (dated 2022)
Ends that are not written are not given here.

T1: GST fusion with RAD21 cleavage site 2 peptide IEEPSR at the COOH terminus (also: fused to GST at N-terminal side)
T1 construct: E. coli extract of GST fused to the peptide near the RAD21 cleavage site; also called 肽段IEEPSR(切割位点2); not shown: GST (glutathione S-transferase) fusion partner, expressed in E. coli
T1 chain: {GST}-IEEPSR

T2: RAD21*M (predicted separase cleavage fragment of RAD21, recombinant, expressed in HEK-293 cells) (UniProt O60216 173-450)
T2 construct: domain: RAD21*M; Transiently expressed from a plasmid in HEK-293
T2 sequence (looked up): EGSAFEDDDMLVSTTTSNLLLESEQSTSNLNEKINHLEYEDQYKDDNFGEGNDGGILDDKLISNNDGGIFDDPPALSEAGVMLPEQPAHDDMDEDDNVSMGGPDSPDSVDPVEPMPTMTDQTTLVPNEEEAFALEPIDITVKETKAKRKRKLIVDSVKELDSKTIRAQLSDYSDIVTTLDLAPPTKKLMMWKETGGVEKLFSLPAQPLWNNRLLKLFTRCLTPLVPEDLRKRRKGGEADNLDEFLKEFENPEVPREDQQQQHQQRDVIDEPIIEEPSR

T3: GST fusion with REC8 cleavage site 2 peptide PSEIEVPR at the COOH terminus (also: fused to GST at N-terminal side)
T3 construct: not shown: GST (glutathione S-transferase) fusion partner, expressed in E. coli
T3 chain: {GST}-PSEIEVPR


Assays:
[1] = biological target: T1, GST fusion with RAD21 cleavage site 2 …; assay: immunoblot, hybridoma ascites on E. coli extracts of GST-peptide fusions
[2] = biological target: T2, RAD21*M (predicted separase cleavage …); assay: immunoprecipitation by the standard ChIP procedure of recombinant protein from HEK-293 extracts
[3] = biological target: T3, GST fusion with REC8 cleavage site 2 …; assay: immunoblot, hybridoma ascites on E. coli extracts of GST-peptide fusions

| Binder | binding result [1] | binding result [2] | binding result [3] |
| --- | --- | --- | --- |
| 抗RAD21新表位单克隆抗体IB22-S (antibody, mouse IgG2a, kappa, V domains shown, Mouse hybridoma antibody (ascites used in blots); also called 1B22s) VH: EVQLVESGGGLVQPRGSLKLSCAASGFTFNNYAMNWVRQAPGKGLEWVARIRSKSKNYAIYYADSVKDRFTISRDDSQTMLYLQMNNLKTEDTGMYYCVAPSYSGSSPFAYWGQGTLVTVSA VL: DVLMTQTPLSLPVSLGDQASISCRSSQSFVHSNGNTYLEWYLQKPGQSPKLLIYKVSNRFSGVPDRFSGSGSGTDFTLKISRVEAEDLGVYYCFQGSHVPFTFGSGTKLEIKR | binds | binds | – |
| 抗REC8新表位单克隆抗体IE22-D (antibody, V domains shown, Mouse hybridoma antibody (ascites used in blots); also called 1E22d) VH: EVQLQQSGAEVVKPGASVKLSCTASGFNIKDTYMHWVNQRPEQGLEWIGRNDPANGNSKYDPKFQGKATITADTSSNTAYLQLSSLTSEDTAVYYCARGVRQGAWFAYWGQGTLVTVSA VL: DVLMTQTPLSLPVSLGDQASISCRSSQSIVHSNGNTYLEWYLQKPGQSPKLLIYKVSNRFSGVPDRFSGSGSGTDFTLKISRVEAEDLGVYYCFQGSHVFTFGAGTKLELKR | – | – | binds |
